Legend:
FGFR1 = FGFR1 (UniProt P11362); experiment: phosphorylation enrichment, bacterial display (enrichment ratio); higher = better substrate or ligand; peptides without Tyr show the background
c-Abl (mouse) = experiment: as above
EPHB2 = EPHB2 (UniProt P29323); experiment: as above
MERTK = MERTK (UniProt Q12866); experiment: as above
Fes = Fes (UniProt P07332); experiment: as above
AncSZ = experiment: as above
Jak2 = Jak2 (UniProt O60674); experiment: as above
Fyn = Fyn (UniProt P06241); experiment: as above
Hck = Hck (UniProt P08631); experiment: as above
Fer (mouse) = experiment: as above
EPHB1 = EPHB1 (UniProt P54762); experiment: as above
FGFR3 = FGFR3 (UniProt P22607); experiment: as above
c-Src = experiment: as above
Grb2 SH2 = Grb2 SH2 (UniProt P62993); experiment: SH2 binding enrichment of the phosphorylated peptide, bacterial display (enrichment ratio); higher = better substrate or ligand; peptides without Tyr show the background
c-Src SH2 = experiment: as above
SHP2-C SH2 = experiment: as above
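Throughout, for SH2 binding enrichment of the phosphorylated peptide, bacterial display: peptide library displayed on the E. coli surface as eCPX fusions, selected cells deep-sequenced, score is each peptide's frequency after selection divided by its frequency in the input.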
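Throughout, for phosphorylation enrichment, bacterial display: 11-residue human phosphosite peptides and single-mutation variants displayed on the E. coli surface, counted by deep sequencing, each peptide's frequency after selection divided by its frequency in the unselected input library; frequency after pTyr selection over input frequency; kinase dosed for 20-30% of maximal phosphorylation in three min.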

Chain of Jak2 (O60674 whole entry, looked up): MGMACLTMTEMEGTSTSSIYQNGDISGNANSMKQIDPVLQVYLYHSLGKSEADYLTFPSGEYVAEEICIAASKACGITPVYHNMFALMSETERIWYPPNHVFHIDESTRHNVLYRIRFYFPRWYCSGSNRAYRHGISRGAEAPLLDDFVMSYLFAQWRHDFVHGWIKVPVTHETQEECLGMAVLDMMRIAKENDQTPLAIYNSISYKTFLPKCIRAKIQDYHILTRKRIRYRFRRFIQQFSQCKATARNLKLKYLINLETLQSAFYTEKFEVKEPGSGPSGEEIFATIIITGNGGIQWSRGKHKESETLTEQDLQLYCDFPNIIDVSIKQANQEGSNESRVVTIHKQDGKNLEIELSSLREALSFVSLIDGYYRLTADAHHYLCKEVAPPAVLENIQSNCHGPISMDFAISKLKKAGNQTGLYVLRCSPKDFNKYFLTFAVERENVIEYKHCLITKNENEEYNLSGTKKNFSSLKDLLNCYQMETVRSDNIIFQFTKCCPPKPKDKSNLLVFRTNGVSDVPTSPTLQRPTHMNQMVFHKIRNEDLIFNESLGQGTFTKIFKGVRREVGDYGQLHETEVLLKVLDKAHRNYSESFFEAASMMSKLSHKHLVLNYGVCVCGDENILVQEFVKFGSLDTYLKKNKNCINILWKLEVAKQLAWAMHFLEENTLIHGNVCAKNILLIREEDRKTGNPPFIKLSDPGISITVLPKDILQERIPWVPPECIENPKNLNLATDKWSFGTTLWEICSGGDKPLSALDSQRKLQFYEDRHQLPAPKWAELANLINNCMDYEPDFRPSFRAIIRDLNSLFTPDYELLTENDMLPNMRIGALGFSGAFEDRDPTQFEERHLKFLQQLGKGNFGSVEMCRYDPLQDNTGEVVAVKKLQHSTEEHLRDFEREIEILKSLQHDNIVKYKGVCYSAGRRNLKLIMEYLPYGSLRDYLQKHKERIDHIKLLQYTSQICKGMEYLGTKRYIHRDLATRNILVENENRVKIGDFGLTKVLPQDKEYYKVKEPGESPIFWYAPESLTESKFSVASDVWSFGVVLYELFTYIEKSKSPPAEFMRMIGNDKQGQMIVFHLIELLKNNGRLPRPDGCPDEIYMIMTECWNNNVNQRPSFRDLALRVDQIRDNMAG
Chain of EPHB2 (P29323 whole entry, looked up): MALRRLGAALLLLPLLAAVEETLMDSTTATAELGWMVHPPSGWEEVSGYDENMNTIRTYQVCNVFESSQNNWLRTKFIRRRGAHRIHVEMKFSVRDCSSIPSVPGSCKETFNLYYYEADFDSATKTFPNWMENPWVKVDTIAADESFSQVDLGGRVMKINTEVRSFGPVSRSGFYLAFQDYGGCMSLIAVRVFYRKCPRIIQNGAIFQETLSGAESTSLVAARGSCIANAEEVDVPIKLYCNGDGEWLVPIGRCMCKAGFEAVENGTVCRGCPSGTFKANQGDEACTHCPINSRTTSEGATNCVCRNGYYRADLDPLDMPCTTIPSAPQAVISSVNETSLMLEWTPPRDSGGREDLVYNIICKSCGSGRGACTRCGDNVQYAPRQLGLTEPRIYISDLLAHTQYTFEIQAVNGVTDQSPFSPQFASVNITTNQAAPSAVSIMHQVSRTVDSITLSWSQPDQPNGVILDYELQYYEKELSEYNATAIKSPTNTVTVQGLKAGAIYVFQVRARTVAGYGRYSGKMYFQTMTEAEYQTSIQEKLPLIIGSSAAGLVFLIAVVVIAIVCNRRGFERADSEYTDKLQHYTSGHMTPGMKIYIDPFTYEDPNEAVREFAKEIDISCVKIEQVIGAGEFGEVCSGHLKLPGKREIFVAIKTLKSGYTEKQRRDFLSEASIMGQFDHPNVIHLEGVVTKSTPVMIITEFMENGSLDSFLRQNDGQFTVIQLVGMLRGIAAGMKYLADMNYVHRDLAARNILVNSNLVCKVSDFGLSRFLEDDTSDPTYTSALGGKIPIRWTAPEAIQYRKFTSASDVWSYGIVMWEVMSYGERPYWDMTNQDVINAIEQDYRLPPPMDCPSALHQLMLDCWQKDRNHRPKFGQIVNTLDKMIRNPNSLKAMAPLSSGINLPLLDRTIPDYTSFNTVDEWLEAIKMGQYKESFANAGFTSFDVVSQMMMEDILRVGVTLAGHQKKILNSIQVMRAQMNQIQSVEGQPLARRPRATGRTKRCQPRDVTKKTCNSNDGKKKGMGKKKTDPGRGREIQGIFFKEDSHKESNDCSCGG
Chain of EPHB1 (P54762 whole entry, looked up): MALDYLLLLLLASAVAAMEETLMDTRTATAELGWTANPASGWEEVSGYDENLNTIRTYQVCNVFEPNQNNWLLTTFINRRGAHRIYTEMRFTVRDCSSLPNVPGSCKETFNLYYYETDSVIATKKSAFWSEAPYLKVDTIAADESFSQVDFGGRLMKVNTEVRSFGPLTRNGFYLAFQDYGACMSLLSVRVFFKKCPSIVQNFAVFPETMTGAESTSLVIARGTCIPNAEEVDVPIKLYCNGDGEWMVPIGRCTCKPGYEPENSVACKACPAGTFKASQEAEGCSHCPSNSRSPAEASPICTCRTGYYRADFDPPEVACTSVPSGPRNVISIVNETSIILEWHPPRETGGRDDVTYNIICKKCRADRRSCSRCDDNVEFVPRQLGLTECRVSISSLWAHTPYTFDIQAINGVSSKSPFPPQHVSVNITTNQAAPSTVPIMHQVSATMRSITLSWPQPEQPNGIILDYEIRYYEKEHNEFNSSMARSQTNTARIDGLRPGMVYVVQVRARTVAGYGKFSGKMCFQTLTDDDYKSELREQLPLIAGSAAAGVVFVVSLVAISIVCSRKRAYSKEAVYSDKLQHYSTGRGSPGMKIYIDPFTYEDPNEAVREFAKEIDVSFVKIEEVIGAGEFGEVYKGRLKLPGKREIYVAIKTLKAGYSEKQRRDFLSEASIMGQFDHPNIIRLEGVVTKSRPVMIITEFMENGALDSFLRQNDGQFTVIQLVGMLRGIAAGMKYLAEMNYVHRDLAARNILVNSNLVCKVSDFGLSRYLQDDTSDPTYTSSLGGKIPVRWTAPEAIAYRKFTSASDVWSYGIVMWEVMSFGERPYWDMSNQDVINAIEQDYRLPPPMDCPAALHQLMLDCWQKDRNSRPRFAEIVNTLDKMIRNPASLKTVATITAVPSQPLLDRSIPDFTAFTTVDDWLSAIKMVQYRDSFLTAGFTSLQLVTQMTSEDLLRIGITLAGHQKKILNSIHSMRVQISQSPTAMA
Chain of Fyn (P06241 whole entry, looked up): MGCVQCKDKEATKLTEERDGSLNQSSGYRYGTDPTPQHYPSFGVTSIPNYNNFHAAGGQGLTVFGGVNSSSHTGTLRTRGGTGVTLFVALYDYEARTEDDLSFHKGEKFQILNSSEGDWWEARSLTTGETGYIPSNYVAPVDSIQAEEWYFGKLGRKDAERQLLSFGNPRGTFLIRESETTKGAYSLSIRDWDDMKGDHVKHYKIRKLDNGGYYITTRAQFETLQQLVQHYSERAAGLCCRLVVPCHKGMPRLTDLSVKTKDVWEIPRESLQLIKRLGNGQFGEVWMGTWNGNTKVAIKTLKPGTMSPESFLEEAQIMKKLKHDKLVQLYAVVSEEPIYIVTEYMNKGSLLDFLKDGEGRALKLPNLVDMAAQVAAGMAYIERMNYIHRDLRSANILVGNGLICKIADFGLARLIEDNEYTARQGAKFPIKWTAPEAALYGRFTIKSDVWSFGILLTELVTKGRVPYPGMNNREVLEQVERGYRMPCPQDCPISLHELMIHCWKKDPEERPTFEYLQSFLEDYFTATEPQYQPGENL
Chain of Grb2 SH2 (P62993 whole entry, looked up): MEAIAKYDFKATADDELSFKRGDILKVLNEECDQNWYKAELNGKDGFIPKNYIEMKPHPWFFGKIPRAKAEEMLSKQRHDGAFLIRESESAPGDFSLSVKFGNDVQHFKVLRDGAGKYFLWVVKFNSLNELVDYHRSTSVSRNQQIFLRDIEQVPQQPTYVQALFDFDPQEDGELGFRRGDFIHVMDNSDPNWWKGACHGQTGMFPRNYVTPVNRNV
Chain of FGFR3 (P22607 whole entry, looked up): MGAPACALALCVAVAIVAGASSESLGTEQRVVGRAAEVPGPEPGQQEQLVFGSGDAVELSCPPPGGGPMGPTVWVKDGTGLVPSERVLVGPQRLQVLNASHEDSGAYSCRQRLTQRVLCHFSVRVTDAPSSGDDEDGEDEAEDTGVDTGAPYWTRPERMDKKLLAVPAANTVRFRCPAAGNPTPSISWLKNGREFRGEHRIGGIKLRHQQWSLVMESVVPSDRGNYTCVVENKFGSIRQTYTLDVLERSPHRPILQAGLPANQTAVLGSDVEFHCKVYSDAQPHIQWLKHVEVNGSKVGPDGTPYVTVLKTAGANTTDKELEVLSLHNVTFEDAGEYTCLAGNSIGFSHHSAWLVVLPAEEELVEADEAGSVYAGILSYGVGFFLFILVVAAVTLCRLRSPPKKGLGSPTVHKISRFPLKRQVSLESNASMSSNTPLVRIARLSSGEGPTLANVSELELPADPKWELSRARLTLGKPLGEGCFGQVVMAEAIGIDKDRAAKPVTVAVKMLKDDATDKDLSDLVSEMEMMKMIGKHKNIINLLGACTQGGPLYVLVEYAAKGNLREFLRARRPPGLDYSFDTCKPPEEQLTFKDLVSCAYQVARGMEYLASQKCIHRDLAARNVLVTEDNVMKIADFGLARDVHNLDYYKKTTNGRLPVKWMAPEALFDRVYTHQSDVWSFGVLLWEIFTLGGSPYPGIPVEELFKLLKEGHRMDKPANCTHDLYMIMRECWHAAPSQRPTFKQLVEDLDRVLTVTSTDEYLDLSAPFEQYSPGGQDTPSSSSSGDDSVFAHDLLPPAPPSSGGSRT

| Sequence | phosphorylation enrichment (FGFR1) | phosphorylation enrichment (c-Abl (mouse)) | phosphorylation enrichment (EPHB2) | phosphorylation enrichment (MERTK) | phosphorylation enrichment (Fes) | phosphorylation enrichment (AncSZ) | phosphorylation enrichment (Jak2) | phosphorylation enrichment (Fyn) | phosphorylation enrichment (Hck) | phosphorylation enrichment (Fer (mouse)) | phosphorylation enrichment (EPHB1) | phosphorylation enrichment (FGFR3) | phosphorylation enrichment (c-Src) | SH2 binding enrichment (Grb2 SH2) | SH2 binding enrichment (c-Src SH2) | SH2 binding enrichment (SHP2-C SH2) |
| --- | --- | --- | --- | --- | --- | --- | --- | --- | --- | --- | --- | --- | --- | --- | --- | --- |
| RRERPYGGGGG [FUS_Y526] | 0.554 | 0.284 | 0.554 | 0.375 | 0.467 | 0.563 | 0.42 | 0.471 | 0.414 | 0.46 | 0.453 | 0.523 | 0.485 | 0.703 | 0.436 | 0.478 |
| LTNDRYLATLT [IL6ST_Y396] | 0.676 | 1.58 | 0.709 | 0.597 | 1.07 | 0.761 | 0.97 | 0.746 | 0.463 | 0.568 | 0.625 | 0.586 | 0.533 | 1.04 | 0.541 | 0.722 |
| KQLGEYKFQNA [ALB_Y425_E420K] | 0.468 | 0.4 | 0.386 | 0.399 | 0.565 | 0.507 | 0.525 | 0.395 | 0.375 | 0.306 | 0.348 | 0.417 | 0.358 | 0.897 | 0.565 | 1.04 |
| ISGLKYPVSQQ [BTK_Y375_R372G] | 0.428 | 0.392 | 0.529 | 0.474 | 0.548 | 0.529 | 0.516 | 0.441 | 0.448 | 0.371 | 0.501 | 0.459 | 0.407 | 0.879 | 0.417 | 0.63 |
| EKSREYHRLFE [PIK3R1_Y463_D464H_YF] | 0.526 | 0.486 | 0.483 | 0.427 | 0.737 | 0.656 | 0.51 | 0.358 | 0.429 | 0.409 | 0.407 | 0.538 | 0.442 | 0.912 | 4.61 | 0.753 |
| LIHLHYIRRDF [BBS4_Y43_K46R_YF] | 0.521 | 0.333 | 0.707 | 0.419 | 1.02 | 1.1 | 0.972 | 0.503 | 0.581 | 0.564 | 0.669 | 0.732 | 0.448 | 1.28 | 0.854 | 0.817 |
| NGSKAYAFVHF [PABPC5_Y147_G146A_YF] | 0.649 | 0.618 | 0.606 | 0.71 | 1.02 | 0.97 | 0.796 | 0.442 | 0.531 | 0.769 | 0.586 | 0.763 | 0.372 | 1.05 | 1.65 | 20.4 |
| RSSGPYGGGGQ [HNRNPA1_Y341] | 0.589 | 0.643 | 0.485 | 0.625 | 0.686 | 0.811 | 0.485 | 0.715 | 0.616 | 0.518 | 0.466 | 0.441 | 0.56 | 0.961 | 0.606 | 0.623 |

— the supplement of paper PMC10065799, “High-throughput profiling of sequence recognition by tyrosine kinases and SH2 domains using bacterial peptide display” (eLife, 2023)
